Consider one molecule from patent US20100150906A1 (AC IMMUNE S A, published 2010).

Several values for one entry are separate records, joined by “and”; a condition that tells them apart may be missing. Identical values can stand only once. No end group written: not given here.

Assay [1] has as its target T1, biotinylated complete Aβ1-42 peptide (Bachem) (UniProt P05067 672-713, biotinylated (position not given)).
T1 construct: domain: amyloid beta 1-42; also called Amyloid beta 1-42; whole Aβ1-42 protein
Nature of the assay: SPR (Biacore X), biotinylated monomeric Aβ1-42 on SA chip, 1:1 fit. As to the method:
(§1) The interactions between AC immune's lead antibody mACI-01-Ab7 C2 (mC2) with amyloid peptide Aβ₁₋₄₂ was studies using surface plasmon resonance. The binding of the mouse antibody mACI-01-Ab7 C2 to either monomers or fibers of Aβ₁₋₄₂ were determined.
(§2) All SPR experiments were carried out on a Biacore X instrument (Biacore AB). Reagents for immobilization (EDC, NHS and ethanolamine), sensor chips CM5 and SA as well as running and sample buffer HBS-EP were purchased from Biacore AB. Sodium acetate (10 mM, pH 5.0) was used as coupling buffer to increase coupling yield. Fibrillar Aβ₁₋₄₂ (BAchem) was prepared by adding PBS buffer to Aβ₁₋₄₂ to a final concentration of 3 mg/ml and leaving the vials at 37° C. for 7 days. Fibrillar Aβ₁₋₄₂ was coupled to a CM5 sensor chip containing a surface-bound carboxymethyl dextran matrix. Biotinylated monomeric Aβ₁₋₄₂ (Bachem) was coupled to a Sensor chip SA consisting of carboxymethyl dextran matrix with covalently attached Streptavidin. Typically four or five concentrations of mAb were assayed by serial dilutions using running buffer. Injections were performed starting from the lowest concentration and were passed over both fc 1 and 2 at a flow rate of 30 μL'min for 3 min. Flow cell 2 was underivatised and responses were subtracted from fc 1 to correct for instrument noise and bulk refractive changes. After injection was finished, the surfaces were washed immediately with running buffer for 5 min. To remove remaining bound antibody from the Aβ₁₋₄₂ fibrils, surface regeneration was performed by injecting pulses of 10 mM NaOH. Kinetic analysis was performed using algorithms for numerical integration and global analysis using BIAevaluation 3.0. The curves obtained for injections of analyte at different concentrations were overlaid and the baselines adjusted to zero. For curve fitting, all data were fit simultaneously to a 1:1 homogeneous complex.
(Surface plasmon resonance follows binding to a sensor surface in real time, without labels.)

The target of assay [2] is T1, biotinylated complete Aβ1-42 peptide …. Nature of the assay: SPR (Biacore X), biotinylated monomeric Aβ1-42 on SA chip, average of experiments. The procedure: as §1, §2
The target in assay [3] is T2, peptide 14 of the first library (aa 14-22 of Aβ) (also: biotinylated, position not given here).
T2 construct: also called p14-22
T2 peptide: HQKLVFFAE
In words: ELISA on biotinylated peptides on streptavidin plates, antibody at 10 µg/ml. The procedure:
(§3) Epitope mapping of the monoclonal antibody mACI-01-Ab7 C2 was performed by ELISA using three different peptide libraries. One library comprises a total of 33 biotinylated peptides covering the complete amino acid (aa) sequence of Aβ1-42 (produced by Mimotopes and purchased from ANAWA Trading SA), the second library contains biotinylated peptides using peptide 12 (aa12-20 of Aβ) from the first peptide library and substituting each amino acid in the sequence by an alanine (see […] below), and the third library contains biotinylated peptides 13, 14, or 15 (aa 13-21, 14-22 or 15-23 of Aβ) and substituting in each case the last amino acids to an alanine or to a glycine for aa 21 which is already an alanine (see table 5 below). A biotinylated complete Aβ1-42 peptide was used as positive control (Bachem). Epitope mapping was done according to the manufacturer's (Mimotopes) instructions. Briefly, Streptavidin coated plates (NUNC) were blocked with 0.1% BSA in PBS overnight at 4° C. After washing with PBS-0.05% Tween 20, plates were coated for 1 hour at RT with the different peptides from the library, diluted in 0.1% BSA, 0.1% Sodium Azide in PBS to a final concentration of 10 μM. After washing, plates were incubated for 1 hour at RT with the mACI-01-Ab7 C2 antibody or an isotype control mouse IgG2b antibody, diluted to 10 μg/ml in 2% BSA, 0.1% Sodium Azide in PBS. Plates were washed again and incubated with alkaline phosphatase conjugated goat anti mouse IgG for 1 h at RT.
For orientation: ELISA stands for enzyme-linked immunosorbent assay.

Assay [4] has as its target T3, peptide 15 of the first library (aa 15-23 of Aβ) (also: biotinylated, position not given here).
T3 construct: also called p15-23
T3 peptide: QKLVFFAED
The description is as above. The procedure: as §3

In assay [5] the target is T4, peptide 12 of the first library (aa 12-20 of Aβ) (also: biotinylated, position not given here).
T4 construct: also called p12-20; Aβ12-20
T4 peptide: VHHQKLVFF
Described as above. The procedure: as §3

Assay [6] addresses T5, amyloid beta 1-42 monomers (UniProt P05067 672-713).
T5 construct: domain: amyloid beta 1-42; also called Aβ1-42 monomers; amyloid monomers
Nature of the assay: ELISA on coated amyloid (55 µg/ml); mC2 at 0.625 ug/ml. The procedure:
(§4) In order to evaluate the specificity of mC2 to different stages of polymerized amyloid protein, monomeric, polymeric soluble and fibrillic amyloid, an ELISA coated with these different stages of polymeric beta-amyloid was performed (FIG. 9). Monomers were prepared according to a modified method published by (Klein, 2002), soluble polymeric amyloid beta according to (Barghorn et al., 2005), whereas fibers were performed by incubation of amyloid (Bachem, Switzerland) with a final concentration of 1 μg/μl in Tris/HCl pH 7.4 at 37° C. for 5 days followed by a centrifugation step (10,000 rpm for 5 minutes). Then amyloid polymers were coated on an ELISA plates with a final concentration of 55 μg/ml and binding affinity ELISA by using an anti-mouse IgG monoclonal antibody (Jackson) labelled with alkaline phosphate was performed.

Assay [7] addresses T6, soluble polymeric amyloid beta (oligomers) (UniProt P05067 672-713).
T6 construct: domain: amyloid beta 1-42; also called amyloid oligomers; Abeta oligomer
The description is as above. The procedure:
as §4

Another assay concerns the target T7, amyloid beta 1-42 fibers (UniProt P05067 672-713).
T7 construct: domain: amyloid beta 1-42; Many copies per fiber; also called Aβ1-42 fibers; fibrillar Aβ1-42
The description is as above. The procedure:
as §4

Assay [8] concerns the target T5, amyloid beta 1-42 monomers. In words: SPR (BIACORE), Aβ1-42 monomers immobilized on CM5 chip, antibody 0.05-1.0 µM; monomers immobilized on a CM5 chip. As to the method: BIACORE® technology utilizes changes in the refractive index at the surface layer upon binding of the antibody to the antigen immobilized on the layer. Binding is detected by surface plasmon resonance (SPR) of laser light refracting from the surface. Analysis of the signal kinetics on rate and off rate allows the discrimination between non-specific and specific interaction. The concentration of antibody used was in the range of 0.05 μM to 1.0 μM.

T1 sequence (P05067 672-713 limits assumed): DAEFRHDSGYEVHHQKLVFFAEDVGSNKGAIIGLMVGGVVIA
T5 sequence (P05067 672-713 limits assumed): as above
T6 sequence (P05067 672-713 limits assumed): as above
T7 sequence (P05067 672-713 limits assumed): as above

B1: mouse monoclonal antibody ACI-01-Ab7C2 (antibody, V domains shown)
VH: EVQLVESGGGLVQPGGSLKLSCAASGFTFSSYGMSWVRQTPDKRLELVASINSNGGSTYYPDSVKGRFTISRDNAKNTLYLQMSSLKSEDTAMYYCASGDYWGQGSTLTVSS
VL: DVVMTQTPLSLPVSLGDQASISCRSSQSLVYSNGDTYLHWYLQKPGQSPKLLIYKVSNRFSGVPDRFSGSGSGTDFTLKISRVEAEDLGVYFCSQSTHVPWTFGGGTKLEIK
notes: also called mC2; mACI-01-Ab7 C2
Take B1: the Kd in assay [1] was 150 nM and 350 nM; in assay [2], 250 nM. For the same molecule, the koff in assay [1] is 0.0027 s⁻¹ and 0.0053 s⁻¹; in [2], 0.004 s⁻¹. Further, the kon in assay [1] is 18000 M⁻¹ s⁻¹ and 15000 M⁻¹ s⁻¹; in assay [2] it was 16000 M⁻¹ s⁻¹; in assay [8], 18000 M⁻¹ s⁻¹. The binding result in assay [3], in [4] and in assay [5] was “binds” throughout. Further, the O.D in assay [6] worked out at 1.16 O.D; in assay [7], 2.81 O.D; with amyloid beta 1-42 fibers, 1.62 O.D.

The term Kd denotes the constant that tells how readily two partners part at equilibrium. Read a high Kd as weaker binding. Broadly, the koff is the first-order rate constant of dissociation. A higher koff goes with a short-lived complex. Broadly, the kon is the second-order rate constant of association. High values mean fast association, low ones slow association.
